Reference: the supplement of paper PMC12764529
± gives the half width of the 95% confidence interval.

How the values were obtained:
[1] = folding stability dG unfold from chymotrypsin proteolysis; higher = more stable
In short: (§1)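 Unfolding free energy was derived, per protease or combined, against a sequence-predicted unfolded-state K50 and a shared folded-state K50, starting from K50 inferred by Bayesian fitting of sequencing counts. Digestion with trypsin and chymotrypsin was carried out on designed mini-proteins under 80 residues without cysteine in a PA-tagged cDNA display construct. Only designs with AlphaFold2 dimer inter-PAE above 15 were kept.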

[2] = folding stability dG unfold from trypsin proteolysis; higher = more stable
In short: as §1

[3] = folding stability dG unfold (combined trypsin and chymotrypsin); higher = more stable
In short: as §1

Sequence: SAGGMPLVELEIVLPKEELEKLEEALRKLGYKVVKIEVVEYDPENDLVRVRIVLEKPMTLEELKKALKSAGG [r13_725_TrROS_Hall]
- folding stability dG unfold [1]: 4.74 ± 0.18 kcal/mol
- folding stability dG unfold [2]: 3.72 ± 0.11 kcal/mol
- folding stability dG unfold [3]: 4.63 ± 0.61 kcal/mol

Sequence: SAGGMPPENIKEITEVERNPDGMKEITIEMEDPELAKQGNPEQVDQMAEWLQDEFPDRGIPVTIEPGPSAGG [r13_243_TrROS]
- folding stability dG unfold [1]: -0.435 ± 0.28 kcal/mol
- folding stability dG unfold [2]: 0.514 ± 0.081 kcal/mol
- folding stability dG unfold [3]: 0.0457 ± 0.28 kcal/mol

Sequence: SAGGMPPGYRVVLVTKEVETVTFEKKPGNENEYTTTPKIVPREEVVEVTSPEVLAELEAEGYEVTPASAGGS [r8_482_JUSTAS]
- folding stability dG unfold [1]: -0.154 ± 0.17 kcal/mol
- folding stability dG unfold [2]: 0.00788 ± 0.031 kcal/mol
- folding stability dG unfold [3]: -0.0223 ± 0.11 kcal/mol

Sequence: SAGGMPPVKVPVKVTISMKDPKTGKTFTVPVEKVATSEEDLEEIKKEVEELAKELKEKGYKEIEIKIESAGG [r13_360_JUSTAS]
- folding stability dG unfold [1]: 3.14 ± 0.08 kcal/mol
- folding stability dG unfold [2]: 2.14 ± 0.061 kcal/mol
- folding stability dG unfold [3]: 2.87 ± 0.1 kcal/mol

Sequence: SAGGMPTTSSSAVKLDGGSDSVTTTTLPDGSRVVYIVSSDGKVYKATVTGGTTTWTEVKTVPPAELSSAGGS [r16_48_JUSTAS]
- folding stability dG unfold [1]: 2.406 ± 0.018 kcal/mol
- folding stability dG unfold [2]: 1.53 ± 0.031 kcal/mol
- folding stability dG unfold [3]: 2.13 ± 0.051 kcal/mol

Sequence: SAGGMPVTVEITVDLVLDPRYRPRPVYPPGETWREPERRVLPVTFTATFGDPEDAERAAVELLRALGVSAGG [r13_35_TrMRF]
- folding stability dG unfold [1]: 1.73 ± 0.032 kcal/mol
- folding stability dG unfold [2]: 0.866 ± 0.041 kcal/mol
- folding stability dG unfold [3]: 1.45 ± 0.062 kcal/mol

Sequence: SAGGMPVTVTLDLSDLTPEEIERLLTEAVEAHPDPAAVTVRVKTDDPALEAAVRAAAEALPAVAVTLESAGG [r13_718_JUSTAS]
- folding stability dG unfold [1]: 0.263 ± 0.051 kcal/mol
- folding stability dG unfold [2]: -0.86 ± 0.54 kcal/mol
- folding stability dG unfold [3]: 0.0912 ± 0.21 kcal/mol

Sequence: SAGGMPVVKVTLRVELPETGETVDVTLYVDPSVPEEYLERLVRRVAEEVARLLRLPPPPVPPRPDELSAGGS [r16_191_TrMRF]
- folding stability dG unfold [1]: 3.64 ± 0.057 kcal/mol
- folding stability dG unfold [2]: 3.29 ± 0.12 kcal/mol
- folding stability dG unfold [3]: 3.52 ± 0.095 kcal/mol

Sequence: SAGGMPYTLVGEKTESLGEGNTVVTKTYKPPDGTYTVETTTITTDPENGSTSTTSTTTTIPPNTPEALSAGG [r19_173_JUSTAS]
- folding stability dG unfold [1]: 0.334 ± 0.25 kcal/mol
- folding stability dG unfold [2]: -1.12 ± 0.34 kcal/mol
- folding stability dG unfold [3]: -0.1 ± 0.31 kcal/mol

Sequence: SAGGMRLVFVTETPEEAEEIARELAELFPDFELEAEVREEEVLVEVPETGEVKRRPVYVLVIELRPKSAGGS [r16_828_TrMRF]
- folding stability dG unfold [1]: 4.42 ± 0.059 kcal/mol
- folding stability dG unfold [2]: 4.29 ± 0.098 kcal/mol
- folding stability dG unfold [3]: 4.41 ± 0.079 kcal/mol

Sequence: SAGGMSITITTNAPKEVLLRFIKDLAEEIGVEVDVEVTVEPLEDGPIVTAHVHIDPKEPEVPLEELFSAGGS [r16_262_TrMRF]
- folding stability dG unfold [1]: 0.384 ± 0.074 kcal/mol
- folding stability dG unfold [2]: 0.75 ± 0.018 kcal/mol
- folding stability dG unfold [3]: 0.642 ± 0.085 kcal/mol

Sequence: SAGGMSKEELAKKLAKELAEKLGIKEIKEIKIEKKKDKVKITIVFKENKKIIEIELKDGKIVKIKEKSAGGS [r16_171_TrROS_Hall]
- folding stability dG unfold [1]: 3.22 ± 0.16 kcal/mol
- folding stability dG unfold [2]: 3.36 ± 0.15 kcal/mol
- folding stability dG unfold [3]: 3.26 ± 0.16 kcal/mol

Sequence: SAGGMSLHIPLPANNEELAEELAEELRDLYAAIPGTPGEVEVDIEPTPEGGYRLIVRFPDHVDEIPASAGGS [r16_356_TrMRF]
- folding stability dG unfold [1]: 1.19 ± 0.11 kcal/mol
- folding stability dG unfold [2]: 1.3 ± 0.014 kcal/mol
- folding stability dG unfold [3]: 1.34 ± 0.073 kcal/mol

Sequence: SAGGMSPELKKNKNVEKVIYNKKTGKVFVYNKKTKKLYIFTKNGKKIEIKMSKDEVEKLLKKGFKPISAGGS [r16_745_TrROS_Hall]
- folding stability dG unfold [1]: 3.22 ± 0.16 kcal/mol
- folding stability dG unfold [2]: 2.14 ± 0.11 kcal/mol
- folding stability dG unfold [3]: 2.86 ± 0.2 kcal/mol

Sequence: SAGGMTEELEITTPDNYKIKITKTLNPNTTKPTYTVKIYEKKSGKVLLEKEFSSLEEAEEFIKNGYGSAGGS [r8_450_TrMRF]
- folding stability dG unfold [1]: 4.596 ± 0.042 kcal/mol
- folding stability dG unfold [2]: 4.73 ± 0.18 kcal/mol
- folding stability dG unfold [3]: 4.65 ± 0.069 kcal/mol

Sequence: SAGGMTIEEILNMSIEEVKALAEEKGLKEVVITLPDGSKITIKVNKDGSIEVTVTNKDGSKKTFTFPSAGGS [r8_51_TrROS_Hall]
- folding stability dG unfold [1]: 3.97 ± 0.1 kcal/mol
- folding stability dG unfold [2]: 3.91 ± 0.42 kcal/mol
- folding stability dG unfold [3]: 4.05 ± 0.24 kcal/mol

Sequence: SAGGMTIEELLKKNPELKELVKKGYVIEITYPDGKKETIKISEEDLKKILDDIKKKTNKPVEIKILPSAGGS [r16_655_TrROS_Hall]
- folding stability dG unfold [1]: 1.82 ± 0.17 kcal/mol
- folding stability dG unfold [2]: 1.05 ± 0.081 kcal/mol
- folding stability dG unfold [3]: 1.54 ± 0.32 kcal/mol

Sequence: SAGGMTIITTTFTLKLPSNGKVVTVTKTYNLSPEEGKKEAEKIAKEIAEELKEPTEILEIKITYYPESAGGS [r16_140_JUSTAS]
- folding stability dG unfold [1]: 2 ± 0.085 kcal/mol
- folding stability dG unfold [2]: 1.26 ± 0.092 kcal/mol
- folding stability dG unfold [3]: 1.7 ± 0.27 kcal/mol

Sequence: SAGGMTIKPGETVEIEVGGKKITLTRNENGELTITIEDEETGETLTITVPKDTTLEEVLKKIEELLKSAGGS [r8_158_TrROS_Hall]
- folding stability dG unfold [1]: 3.45 ± 0.064 kcal/mol
- folding stability dG unfold [2]: 4.04 ± 0.15 kcal/mol
- folding stability dG unfold [3]: 3.61 ± 0.06 kcal/mol

Sequence: SAGGMTITIEKEGDTLKVTITIRDAATNETYTVEATLTRKEDGSLTLEIRFEDGSTKTINLKDIKLVSAGGS [r16_154_TrROS_Hall]
- folding stability dG unfold [1]: 4.11 ± 0.41 kcal/mol
- folding stability dG unfold [2]: 3 ± 0.21 kcal/mol
- folding stability dG unfold [3]: 3.76 ± 0.47 kcal/mol

Sequence: SAGGMTKTILIYDEETGVLVRIEIKVNPETGEIEEIKIETETLEDGTVKMKITLKDGTEIEVEIKPLPSAGG [r13_515_TrROS_Hall]
- folding stability dG unfold [1]: 3.08 ± 0.28 kcal/mol
- folding stability dG unfold [2]: 3.45 ± 0.46 kcal/mol
- folding stability dG unfold [3]: 3.25 ± 0.62 kcal/mol

Sequence: SAGGMTLDELRALLAAGKVTIEPVAPDRWLVTVRGPDGEEFTFEFESLEELLDALRAIPGLEVEVRPVSAGG [r13_600_TrROS_Hall]
- folding stability dG unfold [1]: 3.905 ± 0.036 kcal/mol
- folding stability dG unfold [2]: 3.29 ± 0.1 kcal/mol
- folding stability dG unfold [3]: 3.71 ± 0.044 kcal/mol

Sequence: SAGGMTLDQLKHALRHKKMQIHEPNPNGWYVTFQNPDGKPPTFPVKSDDELRDILRDAPGFEVEVQPVSAGG [r13_600_TrROS]
- folding stability dG unfold [1]: 0.84 ± 0.16 kcal/mol
- folding stability dG unfold [2]: -0.0886 ± 0.17 kcal/mol
- folding stability dG unfold [3]: 0.608 ± 0.2 kcal/mol

Sequence: SAGGMTLEDLAGQSIEEALDLIEENGWDEVTITYPGGSKIEIKYNKDGPIEVEWENPDGNKQTFTIPSAGGS [r8_51_TrROS]
- folding stability dG unfold [1]: 0.907 ± 0.1 kcal/mol
- folding stability dG unfold [2]: 0.644 ± 0.074 kcal/mol
- folding stability dG unfold [3]: 0.833 ± 0.083 kcal/mol

Sequence: SAGGMTLEELKEALKKLPPNVKEVKITVVEKNGKLVVVVEVNGKKLVIEFDSEEERKLAEELVKELLSSAGG [r13_287_TrROS_Hall]
- folding stability dG unfold [1]: 3.13 ± 0.16 kcal/mol
- folding stability dG unfold [2]: 3.75 ± 0.32 kcal/mol
- folding stability dG unfold [3]: 3.45 ± 0.24 kcal/mol

Sequence: SAGGMTLEITFPPNVKKVRVEFDEETNEVKVEVEEVDGELVIRVEVPPGQELSEEELERLKKLLEELSAGGS [r16_359_TrROS_Hall]
- folding stability dG unfold [1]: 1.79 ± 0.072 kcal/mol
- folding stability dG unfold [2]: 1.34 ± 0.037 kcal/mol
- folding stability dG unfold [3]: 1.65 ± 0.083 kcal/mol

Sequence: SAGGMTPEEKEEIAKKFAEELLKKLKEGDPNVKVETEVDPEKGVVKIKVINLNTKKPKTIEIPFSELASAGG [r13_354_TrMRF]
- folding stability dG unfold [1]: 1.83 ± 0.034 kcal/mol
- folding stability dG unfold [2]: 1.76 ± 0.052 kcal/mol
- folding stability dG unfold [3]: 1.77 ± 0.1 kcal/mol

Sequence: SAGGMTPSVLSNLSEEERKEAVRDFIIEFIKKAFPNVPEDFSVEEVPVLVYDLKTGKLFEVTVHLEGKSAGG [r13_555_TrMRF]
- folding stability dG unfold [1]: 2.16 ± 0.1 kcal/mol
- folding stability dG unfold [2]: 1.19 ± 0.083 kcal/mol
- folding stability dG unfold [3]: 1.73 ± 0.15 kcal/mol

Sequence: SAGGMTPVPVKLLSEESSSVSTLPNGETVTTTPSLAYSPLGFYVLTTTTTYPATPVTTTTSTVVPLSVSAGG [r19_320_JUSTAS]
- folding stability dG unfold [1]: -0.151 ± 0.22 kcal/mol
- folding stability dG unfold [2]: 0.458 ± 0.041 kcal/mol
- folding stability dG unfold [3]: 0.223 ± 0.16 kcal/mol

Sequence: SAGGMVDVTITFTKPDGTPETRPIPASSLPLEELVARIRALREAGVEAEVELPPSLPEEVREALARLLSAGG [r13_251_JUSTAS]
- folding stability dG unfold [1]: 2.09 ± 0.071 kcal/mol
- folding stability dG unfold [2]: 1.78 ± 0.039 kcal/mol
- folding stability dG unfold [3]: 1.96 ± 0.053 kcal/mol

Sequence: SAGGMVEIELVPMSEEELKKLREELPENEILIVVKEDGLVLIVRVEKSEEEAEKLAEELRKLLEELPSAGGS [r16_311_TrROS_Hall]
- folding stability dG unfold [1]: 0.935 ± 0.14 kcal/mol
- folding stability dG unfold [2]: 2.05 ± 0.17 kcal/mol
- folding stability dG unfold [3]: 1.69 ± 0.23 kcal/mol
